T1: TLT-1 receptor on the surface of activated human platelets (human) (UniProt Q86YW5)
T1 sequence: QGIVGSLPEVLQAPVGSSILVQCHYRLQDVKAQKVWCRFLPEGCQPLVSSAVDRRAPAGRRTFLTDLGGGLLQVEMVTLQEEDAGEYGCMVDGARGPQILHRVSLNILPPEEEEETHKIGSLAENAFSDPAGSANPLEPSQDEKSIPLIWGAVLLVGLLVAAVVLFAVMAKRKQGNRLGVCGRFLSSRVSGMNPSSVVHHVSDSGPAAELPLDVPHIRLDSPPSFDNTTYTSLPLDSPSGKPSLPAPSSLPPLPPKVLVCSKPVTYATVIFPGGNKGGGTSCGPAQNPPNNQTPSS

T2: TLT-1 18-188 relipidated in 20:80 PS:PC vesicles (human) (UniProt Q86YW5)
T2 sequence: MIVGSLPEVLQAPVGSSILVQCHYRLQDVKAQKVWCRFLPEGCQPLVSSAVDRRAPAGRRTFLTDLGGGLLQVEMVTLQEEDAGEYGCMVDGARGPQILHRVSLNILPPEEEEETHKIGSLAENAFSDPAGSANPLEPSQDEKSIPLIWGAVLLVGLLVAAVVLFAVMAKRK


Columns and labels:
[1] = target: T1, TLT-1 receptor on the surface of activated human platelets (human)
[2] = target: T2, TLT-1 18-188 relipidated in 20:80 PS:PC vesicles (human)

| Binder | FVII-mediated FXa generation % Activity activated plts (n 1) [1] | FVIIa-mediated FXa generation % Activity activated plts (n 1) [1] | FVII-mediated FXa generation % Activity lipidated TLT-1 [2] | FVIIa-mediated FXa generation % Activity lipidated TLT-1 [2] |
| --- | --- | --- | --- | --- |
| Fab 0012-LC-L3-TF;VH-CH1-HPC4 (protein) light chain-linker-TF: DVVMTQTPLSLPVSLGDQASISCRSSQSLVHRNGNTYFHWCLQKPGQSPKLLIYKVSNRFSGVPDRFSGSGSGTDFTLKISRVEAEDLGVYFCSQSTHVPYTFGGGTKLEIKRTVAAPSVFIFPPSDEQLKSGTASVVCLLNNFYPREAKVQWKVDNALQSGNSQESVTEQDSKDSTYSLSSTLTLSKADYEKHKVYACEVTHQGLSSPVTKSFNRGECGSGGGGSGGGGSSGTTNTVAAYNLTWKSTNFKTILEWEPKPVNQVYTVQISTKSGDWKSKCFYTTDTECDLTDEIVKDVKQTYLARVFSYPAGNVESTGSAGEPLYENSPEFTPYLETNLGQPTIQSFEQVGTKVNVTVEDERTLVRRNNTFLSLRDVFGKDLIYTLYYWKSSSSGKKTAKTNTNEFLIDVDKGENYCFSVQAVIPSRTVNRKSTDSPVECMGQEKGEFRE VH-CH1-HPC4: EVKLLESGGGLVQPGGSLKLSCAASGFDFSRYWMTWVRQAPGKGLEWIGEINPDSSTINYTPSLKDKFIISRDNAKNTLYLQMSEVRSEDTALYYCASGVFTSWGQGTLVTVSAASTKGPSVFPLAPCSRSTSESTAALGCLVKDYFPEPVTVSWNSGALTSGVHTFPAVLQSSGLYSLSSVVTVPSSSLGTKTYTCNVDHKPSNTKVDKRVESKEDQVDPRLIDGK | 98% | 97% | 98% | 105% |
| Fab 0012-LC-L6-TF;VH-CH1-HPC4 (protein) light chain-linker-TF: DVVMTQTPLSLPVSLGDQASISCRSSQSLVHRNGNTYFHWCLQKPGQSPKLLIYKVSNRFSGVPDRFSGSGSGTDFTLKISRVEAEDLGVYFCSQSTHVPYTFGGGTKLEIKRTVAAPSVFIFPPSDEQLKSGTASVVCLLNNFYPREAKVQWKVDNALQSGNSQESVTEQDSKDSTYSLSSTLTLSKADYEKHKVYACEVTHQGLSSPVTKSFNRGECGGGGSGGGGSGSGGGGSGGGGSGGGGSSGTTNTVAAYNLTWKSTNFKTILEWEPKPVNQVYTVQISTKSGDWKSKCFYTTDTECDLTDEIVKDVKQTYLARVFSYPAGNVESTGSAGEPLYENSPEFTPYLETNLGQPTIQSFEQVGTKVNVTVEDERTLVRRNNTFLSLRDVFGKDLIYTLYYWKSSSSGKKTAKTNTNEFLIDVDKGENYCFSVQAVIPSRTVNRKSTDSPVECMGQEKGEFRE VH-CH1-HPC4: EVKLLESGGGLVQPGGSLKLSCAASGFDFSRYWMTWVRQAPGKGLEWIGEINPDSSTINYTPSLKDKFIISRDNAKNTLYLQMSEVRSEDTALYYCASGVFTSWGQGTLVTVSAASTKGPSVFPLAPCSRSTSESTAALGCLVKDYFPEPVTVSWNSGALTSGVHTFPAVLQSSGLYSLSSVVTVPSSSLGTKTYTCNVDHKPSNTKVDKRVESKEDQVDPRLIDGK | 95% | 91% | 94% | 101% |
| Fab 0012-LC-L8-TF;VH-CH1-HPC4 (protein) light chain-linker-TF: DVVMTQTPLSLPVSLGDQASISCRSSQSLVHRNGNTYFHWCLQKPGQSPKLLIYKVSNRFSGVPDRFSGSGSGTDFTLKISRVEAEDLGVYFCSQSTHVPYTFGGGTKLEIKRTVAAPSVFIFPPSDEQLKSGTASVVCLLNNFYPREAKVQWKVDNALQSGNSQESVTEQDSKDSTYSLSSTLTLSKADYEKHKVYACEVTHQGLSSPVTKSFNRGECGGGGSGGGGSGGGGSGGGGSGSGGGGSGGGGSGGGGSSGTTNTVAAYNLTWKSTNFKTILEWEPKPVNQVYTVQISTKSGDWKSKCFYTTDTECDLTDEIVKDVKQTYLARVFSYPAGNVESTGSAGEPLYENSPEFTPYLETNLGQPTIQSFEQVGTKVNVTVEDERTLVRRNNTFLSLRDVFGKDLIYTLYYWKSSSSGKKTAKTNTNEFLIDVDKGENYCFSVQAVIPSRTVNRKSTDSPVECMGQEKGEFRE VH-CH1-HPC4: EVKLLESGGGLVQPGGSLKLSCAASGFDFSRYWMTWVRQAPGKGLEWIGEINPDSSTINYTPSLKDKFIISRDNAKNTLYLQMSEVRSEDTALYYCASGVFTSWGQGTLVTVSAASTKGPSVFPLAPCSRSTSESTAALGCLVKDYFPEPVTVSWNSGALTSGVHTFPAVLQSSGLYSLSSVVTVPSSSLGTKTYTCNVDHKPSNTKVDKRVESKEDQVDPRLIDGK | 86% | 81% | 94% | 98% |

Further lines, results first:

| FVII-mediated FXa generation % Activity activated plts (n 1) [1] | FVIIa-mediated FXa generation % Activity activated plts (n 1) [1] | FVII-mediated FXa generation % Activity lipidated TLT-1 [2] | FVIIa-mediated FXa generation % Activity lipidated TLT-1 [2] | Binder |
| --- | --- | --- | --- | --- |
| 92% | 95% | 95% | 98% | Fab 0012-LC-L7-TF;VH-CH1-HPC4 (protein) light chain-linker-TF: DVVMTQTPLSLPVSLGDQASISCRSSQSLVHRNGNTYFHWCLQKPGQSPKLLIYKVSNRFSGVPDRFSGSGSGTDFTLKISRVEAEDLGVYFCSQSTHVPYTFGGGTKLEIKRTVAAPSVFIFPPSDEQLKSGTASVVCLLNNFYPREAKVQWKVDNALQSGNSQESVTEQDSKDSTYSLSSTLTLSKADYEKHKVYACEVTHQGLSSPVTKSFNRGECGGGGSGGGGSGGGGSGSGGGGSGGGGSGGGGSSGTTNTVAAYNLTWKSTNFKTILEWEPKPVNQVYTVQISTKSGDWKSKCFYTTDTECDLTDEIVKDVKQTYLARVFSYPAGNVESTGSAGEPLYENSPEFTPYLETNLGQPTIQSFEQVGTKVNVTVEDERTLVRRNNTFLSLRDVFGKDLIYTLYYWKSSSSGKKTAKTNTNEFLIDVDKGENYCFSVQAVIPSRTVNRKSTDSPVECMGQEKGEFRE VH-CH1-HPC4: EVKLLESGGGLVQPGGSLKLSCAASGFDFSRYWMTWVRQAPGKGLEWIGEINPDSSTINYTPSLKDKFIISRDNAKNTLYLQMSEVRSEDTALYYCASGVFTSWGQGTLVTVSAASTKGPSVFPLAPCSRSTSESTAALGCLVKDYFPEPVTVSWNSGALTSGVHTFPAVLQSSGLYSLSSVVTVPSSSLGTKTYTCNVDHKPSNTKVDKRVESKEDQVDPRLIDGK |
| 80% | 76% | 88% | 95% | Fab 0012-LC-L9-TF;VH-CH1-HPC4 (protein) light chain-linker-TF: DVVMTQTPLSLPVSLGDQASISCRSSQSLVHRNGNTYFHWCLQKPGQSPKLLIYKVSNRFSGVPDRFSGSGSGTDFTLKISRVEAEDLGVYFCSQSTHVPYTFGGGTKLEIKRTVAAPSVFIFPPSDEQLKSGTASVVCLLNNFYPREAKVQWKVDNALQSGNSQESVTEQDSKDSTYSLSSTLTLSKADYEKHKVYACEVTHQGLSSPVTKSFNRGECGGGGSGGGGSGGGGSGGGGSGGGGSGSGGGGSGGGGSGGGGSSGTTNTVAAYNLTWKSTNFKTILEWEPKPVNQVYTVQISTKSGDWKSKCFYTTDTECDLTDEIVKDVKQTYLARVFSYPAGNVESTGSAGEPLYENSPEFTPYLETNLGQPTIQSFEQVGTKVNVTVEDERTLVRRNNTFLSLRDVFGKDLIYTLYYWKSSSSGKKTAKTNTNEFLIDVDKGENYCFSVQAVIPSRTVNRKSTDSPVECMGQEKGEFRE VH-CH1-HPC4: EVKLLESGGGLVQPGGSLKLSCAASGFDFSRYWMTWVRQAPGKGLEWIGEINPDSSTINYTPSLKDKFIISRDNAKNTLYLQMSEVRSEDTALYYCASGVFTSWGQGTLVTVSAASTKGPSVFPLAPCSRSTSESTAALGCLVKDYFPEPVTVSWNSGALTSGVHTFPAVLQSSGLYSLSSVVTVPSSSLGTKTYTCNVDHKPSNTKVDKRVESKEDQVDPRLIDGK |
